We go through 8 molecules from US20190040142A1 (Genentech, published 2019).

B1: bispecific anti-KLB antibody 4H7/28B7 (IgG format) (bispecific antibody, V domains shown)
VH 1: QVQLQQSGPELVKPGASVKLSCKASGYTFTNYDINWVRQRPGQGLEWIGWIYPRDGSAKYNAKFKGKATLTVDTSSSTAYMELHSLTSEDSAVYFCARRPLYYGSTHWYFDVWGTGTTVTVSS
VL 1: DIVLTQSPASLAVSLGQRATISCKASQSVDYDGDSYMNWYQQKPGQPPKLLIYAASNLKSGIPARFSGSGSGTDFTLNIHPVEEEDAATYYCQQSNEDPRTFGGGTRLEIK
VH 2: EVQLQQSGPELVQPGTSVKISCEASGYTFTDYYINWVKQSRGKSLEWIGDINPNNGDTTYNQKFKAKATLTVDRSSNTAYMELRSLTSEDSVVYYCARRFYSSPFDSWGQGTTLTVSS
VL 2: DIVMTQSPSSLAVSVGEKVTLSCKSGQSLLYSRNQKNYLAWYQQKPGQSPKLLISWASTRESGVPDRFTGSGSGTDFTLTISSVKTEDLAVYHCQQYYSYPYTFGGGTRLEIK
B2: anti-KLB monoclonal antibody 28B7 (antibody, IgG1, V domains shown)
VH: B1 VH 2
VL: B1 VL 2
notes: also called clone 28B7; 28B7 IgG
B3: anti-KLB monoclonal antibody 4H7 (antibody, IgG1, V domains shown)
VH: B1 VH 1
VL: B1 VL 1
notes: hybridoma mouse IgG in the first screen; also called clone 4H7; 4H7 IgG
B4: anti-KLB monoclonal antibody 2C12 (antibody, human IgG1, V domains shown)
VH: EVQLQQSGPGLVKPSQSLSLTCSVTGYSITSGYYWTWIRQFPGNKLEWMGYIKYDGGNYYNPSLRNRISITRDTSKNHFFLKFYSVTAEDTATYFCARGDYYASPYGAMDSWGQGTSVTVSS
VL: DIVMTQSPSSLSASLGDTITITCHASQDIDVWLSWYQQKPGNVPQLLISKSSILHTGVPSRFSGGGSGTGFTLTISSLQPEDIATYYCQQGLSYPFTFGSGTKLKIK
notes: hybridoma mouse IgG in the first screen; also called clone 2C12; 2C12 (human IgG1)
B5: anti-KLB antibody clone 28B7 in tri-chain IgG format (antibody)
chain 1: DIVMTQSPSSLAVSVGEKVTLSCKSGQSLLYSRNQKNYLAWYQQKPGQSPKLLISWASTRESGVPDRFTGSGSGTDFTLTISSVKTEDLAVYHCQQYYSYPYTFGGGTRLEIKRGGGGSGGGGSGGGGSGGGGSEVQLQQSGPELVQPGTSVKISCEASGYTFTDYYINWVKQSRGKSLEWIGDINPNNGDTTYNQKFKAKATLTVDRSSNTAYMELRSLTSEDSVVYYCARRFYSSPFDSWGQGTTLTVSS
chain 2: not shown
notes: VL-linker-VH-CH1-CH2-CH3 (VLfH) plus a separate CL domain disulfide-bonded to CH1; also called 28B7 tcIgG; 28B7 tcIgG1; not shown: human IgG1 heavy chain constant region (CH1-hinge-CH2-CH3); monospecific tcIgG were made by c
B6: anti-KLB antibody clone 4H7 in tri-chain IgG format (antibody)
chain 1: DIVLTQSPASLAVSLGQRATISCKASQSVDYDGDSYMNWYQQKPGQPPKLLIYAASNLKSGIPARFSGSGSGTDFTLNIHPVEEEDAATYYCQQSNEDPRTFGGGTRLEIKRGGGGSGGGGSGGGGSGGGGSQVQLQQSGPELVKPGASVKLSCKASGYTFTNYDINWVRQRPGQGLEWIGWIYPRDGSAKYNAKFKGKATLTVDTSSSTAYMELHSLTSEDSAVYFCARRPLYYGSTHWYFDVWGTGTTVTVSS
chain 2: not shown
notes: VL-linker-VH-CH1-CH2-CH3 (VLfH) plus a separate CL domain disulfide-bonded to CH1; also called 4H7 tcIgG; 4H7 tcIgG1; not shown: human IgG1 heavy chain constant region (CH1-hinge-CH2-CH3); monospecific tcIgG were made by c
B7: anti-KLB monoclonal antibody 12B8 (antibody, V domains shown)
VH: QIQLVQSGPELKKPGETAKISCKASGYAFSNYGMNWVKQAPGKDLKWMGWIDTDTGEATYTDDFKGRFVFSLETSASTAYLQINNLKNEDMATYFCAREEYGLFGFPYWGHGTLVTVSA
VL: DIQMTQSSSSFSVSLGDRVTITCKASEDIYNRLAWYQQKPGSAPRLLISAATSLETGVPSRFSGSGSGKDYTLSITSLQTEDVATYYCQQYWSNPLTFGAGTKLELK
notes: Mouse hybridoma antibody; tested as hybridoma supernatant, or recombinantly as mouse IgG2a or human IgG1, depending on the assay; also called clone 12B8; parental antibody 12B8
B8: anti-KLB monoclonal antibody 23B3 (antibody, V domains shown)
VH: EVQLQESGPGLVKPSQSLSLTCSVTGYSITSGYYWNWIRQFPGNKLEWMGYIRYDGNSNYNPFLKNRVSITRDTSKNQFFLKLNSVTTEDTATYYCTRKGAYYSSFDALDYWGQGTSVTVSS
VL: DIVMTQSPSSMYASLGERVTISCKASQDIRSYLSWFQQKPGKSPKTLIYRANRLVDGVPSRFSGSGSGQDYSLTITSLEFGDVGLYYCLQYDEFPLTFGAGTKLKIE
notes: also called clone 23B3

The target of assay [1] is human KLB/FGFR1c receptor complex on cells (human, UniProt Q86Z14 53-1044; P11362 22-822). Briefly: cell-based or functional assay.
Assay [2] concerns the target T1, Rat KLB (limits assumed).
T1 construct: also called rat Klotho-beta
T1 single chain: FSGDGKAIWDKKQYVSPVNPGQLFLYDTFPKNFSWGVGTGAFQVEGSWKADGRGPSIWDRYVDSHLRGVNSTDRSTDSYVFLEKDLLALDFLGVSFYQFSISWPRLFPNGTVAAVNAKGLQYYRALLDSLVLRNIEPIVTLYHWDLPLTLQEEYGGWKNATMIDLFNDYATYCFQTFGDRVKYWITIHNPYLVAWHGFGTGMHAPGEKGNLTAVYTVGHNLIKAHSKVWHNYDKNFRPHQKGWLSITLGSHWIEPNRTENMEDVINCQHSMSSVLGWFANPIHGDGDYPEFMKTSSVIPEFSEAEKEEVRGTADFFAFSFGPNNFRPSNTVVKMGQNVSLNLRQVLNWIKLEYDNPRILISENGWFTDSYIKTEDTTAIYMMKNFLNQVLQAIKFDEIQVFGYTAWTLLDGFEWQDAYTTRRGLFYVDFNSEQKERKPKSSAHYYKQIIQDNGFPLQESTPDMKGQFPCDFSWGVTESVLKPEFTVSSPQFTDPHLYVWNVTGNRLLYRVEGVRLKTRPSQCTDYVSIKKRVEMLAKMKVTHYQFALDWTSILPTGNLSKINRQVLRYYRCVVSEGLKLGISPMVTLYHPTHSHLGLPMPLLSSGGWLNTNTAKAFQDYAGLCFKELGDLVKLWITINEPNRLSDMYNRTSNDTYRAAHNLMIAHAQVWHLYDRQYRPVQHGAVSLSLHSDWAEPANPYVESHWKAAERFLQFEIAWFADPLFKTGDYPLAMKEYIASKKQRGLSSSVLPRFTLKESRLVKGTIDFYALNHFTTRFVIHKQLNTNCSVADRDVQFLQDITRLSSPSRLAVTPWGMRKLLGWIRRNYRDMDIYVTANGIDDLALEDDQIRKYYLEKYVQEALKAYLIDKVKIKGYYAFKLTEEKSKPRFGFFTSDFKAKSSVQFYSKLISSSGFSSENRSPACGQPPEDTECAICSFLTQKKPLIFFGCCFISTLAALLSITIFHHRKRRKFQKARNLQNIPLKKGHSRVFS
Briefly: FACS, HEK293T cells expressing human/rat KLB chimeric proteins; summary table of + and - by epitope bin. (In general: A flow cytometer gives signals particle by particle.)

Assay [3] concerns the target T2, recombinant human KLB (soluble protein) (human, UniProt Q86Z14 53-997, limits assumed).
T2 construct: also called monomeric human KLB; recombinant KLB
The assay can be described thus: SPR, Biacore T200, antibody captured on Protein A chip, monomeric human KLB as analyte, 25 C; mean of two experiments. The method, then:
(§1) For binding affinity determination of tcIgG and traditional IgG, surface plasmon resonance (SPR) measurements using a BIAcore T200 and ProteinA sensor chip was used and dilutions of monomeric human KLB as analyte were injected over the immobilized tcIgG or traditional IgG at 25° C. to determine monovalent affinities. Association rates (kon) and dissociation rates (koff) were calculated using a simple one-to-one Langmuir binding model. The equilibrium dissociation constant (Kd) was calculated as the ratio koff/kon.
Background: Surface plasmon resonance follows binding to a sensor surface in real time, without labels.

Assay [4] has as its target T2, recombinant human KLB (soluble protein). The assay can be described thus: SPR, Biacore T200, antibody captured on Protein A chip, monomeric human KLB as analyte, 25 C; mean ± range of two experiments. The method, then: as §1
Assay [5] shares this target. The assay can be described thus: SPR (BIAcore T200), antibody captured on Protein A chip, monomeric human KLB as analyte, 25 C, 1:1 Langmuir fit. The method, then: as §1
The target of assay [6] is T1, Rat KLB. The assay can be described thus: flow cytometry, HEK293T cells transiently expressing the construct, anti-human IgG-Alexa 488.
Assay [7] addresses T3, human KLB expressed on cells (human, UniProt Q86Z14 53-1044).
T3 construct: also called hKLB; Klotho-beta
The assay can be described thus: FACS, HEK293T cells expressing human/rat KLB chimeric proteins; summary table of + and - by epitope bin.

Assay [8] has as its target T2, recombinant human KLB (soluble protein). The assay can be described thus: binding affinity test of Example 7 (FIG. 21); method not restated, presumably the Biacore assay of Example 6; text of Example 7 (FIG. 21); Table 9 prints 2.06 ± 0.11 nM. The method, then:
as §1

For assay [9], the target named is T3, human KLB expressed on cells. Briefly: flow cytometry, HEK293T cells transiently expressing the construct, antibody at 2 µg/ml, anti-human IgG-Alexa 488.
In assay [10] the target is B4. Briefly: biolayer interferometry (Octet), anti-human Fc sensor -> human Ab1 -> no hKLB -> mouse Ab2. The method, then:
Epitope binning experiments (FIGS. 11A-11B) were performed by BioLayer Inferometry in 8-channel or 16-channel mode using anti-mouse Fc or anti-human Fc capture biosensors on the Octet Red384 system (Pall Life Sciences, Menlo Park, Calif.). […] Epitope binning with anti-human Fc capture biosensors was done similarly.

Turning to B1, the “EC50 (nM), luciferase-based reporter assay” value in assay [1] was found to be 1.21 nM.
Turning to B2, the binding result with Rat KLB [2] was “no binding (tested: not given)”. The kon in assay [3] and in assay [5] was 104000 M⁻¹ s⁻¹ throughout. In addition, the Kd in assay [4] turned out to be 2.65 nM. Also, in [4], the koff is 0.000276 s⁻¹.
As to B3, the binding result with Rat KLB [2] was “no binding (tested: not given)”. Also, in assay [4], the Kd amounted to 0.78 nM, the off-rate (koff) was 0.000444 s⁻¹ and the kon came to 571000 M⁻¹ s⁻¹. The kon in assay [5] is 571000 M⁻¹ s⁻¹.
Turning to B4, the binding result with Rat KLB [6] is listed as “no binding (tested: 2 µg/ml (not on the sheet))”; in assay [7] it was “binds”.
Consider B5, for which, in [4], the Kd amounted to 2.06 nM, the koff came to 0.000244 s⁻¹ and the kon amounted to 117000 M⁻¹ s⁻¹. Besides, the association rate constant (kon) in assay [5] came to 119000 M⁻¹ s⁻¹. Besides, the equilibrium dissociation constant (Kd) in assay [8] was 2.05 nM.
As to B6, in [4], the equilibrium dissociation constant (Kd) worked out at 1.29 nM, the off-rate constant (koff) was determined as 0.000427 s⁻¹ and the on-rate (kon) came out at 332000 M⁻¹ s⁻¹. For the same molecule, the on-rate (kon) in [5] is 332000 M⁻¹ s⁻¹.
B7: the binding result in the assay with Rat KLB [6] is “no binding (tested: 2 µg/ml (not on the sheet))”; in assay [9], “binds”.
Consider B8, for which the binding result in assay [10] is “no binding”; in the assay with Rat KLB [6], “no binding (tested: 2 µg/ml (not on the sheet))”; in assay [7], “binds”.

Broadly, the kon is the second-order rate constant of association. The term Kd denotes the equilibrium constant for the complex coming apart. One may read the koff as a measure of how fast the partners let go of each other.
